Results as given in patent US12583888B2, “Bi-specific extracellular matrix binding peptides and methods of use thereof” (University of Tartu, priority 2019, dated 2026).
No end group written: not given here.

Columns and labels:
fibronectin EDB-domain = target: T1, fibronectin EDB-domain (Homo sapiens, UniProt P02751); test: PL3 phage binding to fibronectin EDB-domain
T1 construct: made in house; host or cells: E. coli BL21 Rosetta 2 (DE3) pLysS
Excerpt: The recovered phage was tittered and amplified for a subsequent round of selection. […] RPARPAR phage on NRP-1-coated beads was used as a positive control (Teesalu et al., 2009). Phage clones displaying heptaglycine peptide (GGGGGGG, G7 (SEQ ID NO:20)) or insert less phage clones were used as negative controls.

P13 tumor = conditions: i.v. equimolar mix, 2 h circulation
Excerpt: (§1) In vivo play-off was used to evaluate systemic homing of peptide phage to xenograft tumor models. The in vitro selected candidate TNC-C binding peptides, phages displaying published tumor homing peptides, and control peptides were amplified and purified by precipitation with PEG-8000 (Sigma-Aldrich, St. Louis, MO, USA), followed by CsCl2 gradient ultracentrifugation and dialysis. The amplified phage peptides were pooled in equimolar quantities, and injected intravenously (final 1×10^10 pfu in 200 μl PBS) in tumor-bearing mice for two hour circulation, after which mice were anesthetized with 2.5% avertin and intracardially perfused with DMEM intracardially. The tumors and organs were collected in lysogeny broth (LB)+1% NP40, and the tissues were homogenized using a hand-held homogenizer for phage peptide rescue. Phages in the tissue lysates were amplified in E. coli, purified by precipitation with PEG-8000 and DNA was extracted using a DNA extraction kit (High Pure PCR Template Preparation Kit; Roche, Basel, Switzerland). Next-generation sequencing of phage genomic DNA evaluated the representation of each phage in input mixture, in tumor and control organs with Ion Torrent system (Thermo Fisher Scientific, Waltham, MA, USA). The next generation deep sequencing of phage library was done using Ion Torrent according to the manufacturer's protocol with slight modification. The FASTQ data from Ion Torrent was processed by a custom python script that identified the barcodes, constant flanking residues, and extracted the reads of the correct length.

P3 stem cell-like tumor = conditions: i.v. equimolar mix, 2 h circulation
Excerpt: as §1

[1] = test system: PC3 prostate carcinoma xenografts; conditions: i.v. equimolar mix, 2 h circulation
Excerpt: as §1

U87-MG glioblastoma = conditions: i.v. equimolar mix, 2 h circulation
Excerpt: as §1

WT-GBM tumor = conditions: i.v. equimolar mix, 2 h circulation
Excerpt: as §1

normal brain = conditions: i.v. equimolar mix, 2 h circulation
Excerpt: as §1

M21 cells = test: Cell binding and internalization of CF555-labeled AgNPs; assay type: cell-based; conditions: NRP-1-negative M21, 1 h incubation
Procedure: (§2) U87-MG, PPC1, and M21 cells cultured on glass coverslips were incubated with CF555-labeled AgNPs at 37° C. for 1 hour, followed by washing with medium to remove background AgNPs. Etching solution freshly diluted from 0.2 M stock solutions of Na2S2O3 and K3Fe(CN)6 to 10 mM working concentration in PBS was applied to cells for 3 minutes, followed by PBS washes. The cells on coverslips were fixed with −20° C. methanol for 1 minute. The cell membrane was visualized by staining with Alexa Fluor 488-labeled wheat germ agglutinin (WGA) at 1:1000 at RT for 1 h. […] Fluoromount-G (Electron Microscopy Sciences) medium was used to mount the coverslips on microscope slides for confocal imaging.

U87-MG cells = test: as above; assay type: cell-based, human; conditions: NRP-1-positive U87-MG, 1 h incubation
Procedure: as §2

PPC1 cells = test: as above; assay type: cell-based; conditions: NRP-1-positive PPC1, 1 h incubation
Procedure: as §2

U87-MG xenograft = test: In vivo fluorescence imaging with the IVIS Spectrum system; design: species or system mice
Procedure: Live imaging of PL3 peptide tumor homing was assessed by in vivo fluorescence imaging with the IVIS Spectrum imaging system (PerkinElmer, Waltham, MA) in U87-MG xenograft mice model (Male, 18-20 weeks of age). AgNPs with CF647 dye-labeled neutravidin coating was functionalized with biotinylated PL3 peptide (AgNP-PL3) or control biotin (AgNP). AgNP PL3 and AgNP particles were injected intravenously into the mice. For assessment of tumor PL3 targeted delivery and homing by IVIS, mice were placed in a dark imaging chamber under isoflurane anesthesia, and imaged with the following parameters. Specific excitation filter, 650 nm; emission filter, 665 nm; auto exposure time; binning, medium; field of view, 12; f/stop, 2; open filter. The images were captured at pre-injection (0 hours) and five-hour post-injection. The signal was expressed in total Radiant Efficiency [p/s]/[μW/cm^2]. The regions of interest (ROIs) were drawn covering the whole tumor in each mouse after tissue background correction, and radiant efficiency signal was quantitated. An automated spectral unmixing algorithm was used, images were analyzed by using Living Image 4.4 software (Caliper Life Sciences, Hopkinton, MA). Three animals per experimental group were analyzed. For the receptor blocking studies, PL3-AgNP injection was preceded by systemic pre-injection of blocking TNC-C and/or NRP1 antibodies (30 μg/mouse) 15 minutes prior to injection of the AgNPs.

T1 sequence (P02751 with tags, fused parts or gaps): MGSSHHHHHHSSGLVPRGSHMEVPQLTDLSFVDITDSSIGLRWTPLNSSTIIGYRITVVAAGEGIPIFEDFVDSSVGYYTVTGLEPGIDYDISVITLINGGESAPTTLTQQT

Substance | binding to fibronectin EDB-domain (fibronectin EDB-domain) | Representation of phage in tumors (fold G7 control phage), P13 (P13 tumor) [fold] | Representation of phage in tumors (fold G7 control phage), P3 SCL (P3 stem cell-like tumor) [fold] | Representation of phage in tumors (fold G7 control phage), PC3 [1] [fold] | Representation of phage in tumors (fold G7 control phage), U87-MG (U87-MG glioblastoma) [fold] | Representation of phage in tumors (fold G7 control phage), WT-GBM (WT-GBM tumor) [fold] | Representation of phage in control brain tissue (fold G7 control phage), Norm. brain (normal brain) [fold] | cellular uptake (M21 cells) | cellular uptake (U87-MG cells) | cellular uptake (PPC1 cells) | accumulation in glioma lesions more than control non-peptide CF647-AgNP (U87-MG xenograft; 5 hours, i.v.) [fold] | tumor homing on coadministration with blocking antibodies (U87-MG xenograft; cocktail of both antibodies) | tumor homing on coadministration with blocking antibodies (U87-MG xenograft; rabbit polyclonal antibodies against either TNC-C or NRP-1)
AGRGRLVR [PL3] | did not bind | 4.7 | 2.1 | 3.9 | 2.1 | 24.1 | 0.4 | low background-like uptake | – | – | – | – | –
PL3-AgNPs: dye-labeled neutravidin-coated silver nanoparticles functionalized with biotinylated PL3 peptide (AGRGRLVR; also: biotinylated, bound to dye-labeled neutravidin-coated silver nanoparticles) | – | – | – | – | – | – | – | – | robustly endocytosed with perinuclear accumulation | robustly endocytosed with perinuclear accumulation | ~10 | almost completely inhibited the tumor accumulation | decrease in tumor homing
